Source: US20220267396A1
Values joined by “and” are separate entries in the source; they are usually repeats but may differ in a detail not shown here. Identical values can stand only once.

T1: IL-10 receptor 1 (IL-10R1), IL-10R His-tag protein
T1 sequence (Q13651 22-235, species assumed, looked up): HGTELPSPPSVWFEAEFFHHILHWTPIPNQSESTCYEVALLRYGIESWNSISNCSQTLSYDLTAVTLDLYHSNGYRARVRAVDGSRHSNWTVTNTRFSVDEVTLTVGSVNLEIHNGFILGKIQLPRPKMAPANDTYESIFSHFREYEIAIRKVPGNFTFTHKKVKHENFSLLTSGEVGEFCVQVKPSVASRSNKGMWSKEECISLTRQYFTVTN

B1: IL-10M-1 (NTIG-linker 1-IL-10Vm), monomeric IL-10 variant fusion protein of Example 1 (Fc fusion)
chain: SHTQPLGVFLFPPKPKDQLMISRTPEVTCVVVDVSQEDPEVQFNWYVDGVEVHNAKTKPREEQFNSTYRVVSVLTVLHQDWLNGKEYKCKVSNKGLPSSIEKTISKAKGQPREPQVYTLPPSQEEMTKNQVSLTCLVKGFYPSDIAVEWESNGQPENNYKTTPPVLDSDGSFFLYSRLTVDKSRWQEGNVFSCSVLHEALHNHYTQKSLSLSLGAAGSGGGGGSGGGGSGGGGSSPGQGTQSENSCTHFPGNLPNMLRDLRDAFSRVKTFFQMKDQLDNLLLKESLLEDFKGYLGCQALSEMIQFYLEEVMPQAENQDPDIKAHVNSLGENLKTLRLRLRRCHRFLPCENGGSGGSGGSKSKAVEQVKNAFNKLQEKGIYKAMSEFDIFINYIEAYMTMKIRN
B2: IL-10M (NTIG-linker 1-IL-10V), dimeric IL-10 variant fusion protein of Comparative Example 1 (Fc fusion, not shown: a dimerising Fc or GST)
chain: AAGSGGGGGSGGGGSGGGGSSPGQGTQSENSCTHFPGNLPNMLRDLRDAFSRVKTFFQMKDQLDNLLLKESLLEDFKGYLGCQALSEMIQFYLEEVMPQAENQDPDAKAHVNSLGENLKTLRLRLRRCHRFLPCENKSKAVEQVKNAFNKLQEKGIYKAMSEFDIFINYIEAYMTMKIRN

What was measured:
[1] = target: anti-DNP mouse IgE antibody (Sigma, USA); assay: BLI (Octet K2), fusion protein amine-coupled to AR2G sensor, anti-DNP mouse IgE in solution 50 pM-3.125 nM
[2] = target: anti-DNP mouse IgE antibody (Sigma, USA); assay: BLI (Octet K2), fusion protein on sensor, anti-DNP mouse IgE in solution
[3] = target: anti-DNP mouse IgE antibody (Sigma, USA); assay: BLI (Octet K2), average of three runs, fusion protein on sensor, anti-DNP mouse IgE in solution
[4] = target: T1, IL-10 receptor 1 (IL-10R1), IL-10R His-tag protein; assay: BLI (Octet K2), IL-10R His-tag amine-coupled to AR2G sensor, fusion protein in solution 0-1,000 nM
[5] = target: T1, IL-10 receptor 1 (IL-10R1), IL-10R His-tag protein; assay: BLI (Octet K2), IL-10R His-tag on sensor

| Molecule | Kd [1] | kon [2] | Kd [3] [nM] | Kd [4] [nM] | koff [4] [s⁻¹] | kon [4] [M⁻¹ s⁻¹] | fold of KD against Comparative Example 1 (NTIG-IL-10V) [5] [fold] |
| --- | --- | --- | --- | --- | --- | --- | --- |
| FcεRIα-Fc fusion protein not containing IL-10Vm (control) (from UniProt P12319 26-205) | 0.364 nM and 0.478 nM and 0.94 nM | 123000 M⁻¹ s⁻¹ and 149000 M⁻¹ s⁻¹ and 166000 M⁻¹ s⁻¹ | 0.594 |  |  |  |  |
| B1 |  |  |  | 29.2 | 0.0006 | 20600 | 3 |
| B2 |  |  |  | 11.1 | 0.0008 | 71100 |  |
